Assay results from PMC7943195.

Key:
[1] = target: A. baumannii 19606 PBP1B (Acinetobacter baumannii 19606 (ATCC))
[2] = target: P. aeruginosa PBP1B (Pseudomonas aeruginosa)

Row | Substance | fold stimulation of the glycosyltransferase rate (dansyl-lipid II assay) with 0.5 µM LpoP^Ab(sol), Triton X-100-solubilised PBP1B^Ab [1] [fold] | fold increase of the final FRET with 2 µM LpoP^Pa(sol), PBP1B^Pa in liposomes [2] [fold] | fold increase of the final FRET with 2 µM LpoP^Pa(sol), Triton X-100-solubilised PBP1B^Pa [2] [fold]
1 | A. baumannii 19606 LpoP(sol) (natural protein) | 3.3 | – | –
2 | P. aeruginosa LpoP(sol) (natural protein) | – | 2.2 | 2.1
